Experiments:
[1] = molecular target: L21A variant of HIV-1 gp41 Core (Core^L21A) (HIV-1 (HXB2 numbering named)); test: SEC-MALS
[2] = molecular target: L21A variant of HIV-1 gp41 Core (Core^L21A) (HIV-1 (HXB2 numbering named)); test: NMR, 1H-15N HSQC resonance amplitudes of trimer and monomer
[3] = molecular target: L21A variant of HIV-1 gp41 Core (Core^L21A) (HIV-1 (HXB2 numbering named)); test: NMR, 15N ZZ exchange

For “L21A variant of HIV-1 gp41 Core (Core^L21A) (domain or fragment)”, the stoichiometry N [1] was 3, the Kd = [M]^3/([T][B]^2) (6HB trimer + 2 bicelles to 3 lipid-bound monomers) [2] was 2.8 and the population of the lipid-bound (monomeric) state [2] was 71%. It also gave a kex (koff[B]^2 + 3kon[M]^2) [3] of 1.05 s⁻¹.

— publication PMC9378563
